# In US20190367592A1 (AC IMMUNE, published 2019):
# Molecular target: T1, full-length human Tau (flTau) (human, UniProt P10636-8 1-441)
# T1 construct: range 1-441; bought (SignalChem); also called human Tau-441
# Assay: SPR, hybridoma Ab on anti-IgG chip, flTau analyte
# Protocol: Affinity of non-purified antibodies in serum-free hybridoma supernatants was estimated by surface plasmon resonance using a Biacore T-100 instrument (GE Healthcare, United Kingdom). Antibodies were immobilized onto an anti-IgG biosensor chip, and flTau (SignalChem, Canada) was used as the target analyte. Kinetic analysis was done using a 1:1 Langmuir fit model.
# For affinity measurements to flTau, antibodies were measured using SPR on a Biacore instrument, with the KDs determined. Biacore affinity measurements were done by immobilizing antibodies on an anti-IgG chip and using flTau as the target analyte.
# T1 sequence (P10636 other isoform, or with tags, fused parts or gaps limits assumed): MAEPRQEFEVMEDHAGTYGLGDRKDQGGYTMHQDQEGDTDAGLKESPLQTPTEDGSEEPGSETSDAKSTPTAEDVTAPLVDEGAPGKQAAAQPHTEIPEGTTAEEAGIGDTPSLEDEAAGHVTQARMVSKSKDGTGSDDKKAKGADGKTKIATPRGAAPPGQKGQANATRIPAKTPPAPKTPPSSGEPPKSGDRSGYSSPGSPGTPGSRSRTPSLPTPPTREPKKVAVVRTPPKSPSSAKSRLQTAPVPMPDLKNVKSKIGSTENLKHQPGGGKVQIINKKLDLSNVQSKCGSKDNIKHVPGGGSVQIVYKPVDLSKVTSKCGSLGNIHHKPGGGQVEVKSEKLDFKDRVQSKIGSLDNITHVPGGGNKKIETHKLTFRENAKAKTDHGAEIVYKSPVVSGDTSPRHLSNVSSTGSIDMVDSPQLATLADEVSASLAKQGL
row,Binder,Kd [nM]
1,"61E7-C4 (antibody, V domains shown, hybridoma supernatant) VH: EVQLVESGGDLVKPGGSLKVSCVASGFTFRSYGMSWVRQTPDKRLDWVATISSGGNYTYYPDSVKGRFTISRDNAKNTLYLQMSSLKSEDTAMYYCASSYSGAMDYWGQGTSVTVSS VL: DTVMTQSPLSLPVSLGDQASISCRSSQSIVHSNGNTYLEWYLQKPGQSPKLLIYTVSNRFSGVPDRFSGSGSGTDFTLKISRVEAEDLGVYYCFQGSHVPWTFGGGTKLEIK",3.3
2,"19F8-B1 (antibody, V domains shown, hybridoma supernatant) VH: EVQLQQSGPELVKPGASVKMSCKASGYTFTDYYMKWVKQSHGKSLEWIGDLNPNNGGTLYNQKFKGQATLTVDKSSSTAYMQFNSLTSEDSAVYYCARSAGYGDSFAYWGQGTLVTVSA VL: DVLMTQTPLSLPVSLGDQASISCRSSQNIVHSNGNTYLEWYLQKPGQSPKLLIYKVSNRFSGVPDRFSGSGSGTDFTLKISRVEAEDLGIYFCFQGSHVPPTFGGGTKLEIK",2.9
3,"126F11-G11 (antibody, mouse IgG2a, V domains shown) VH: EVQLQQSGAELVRPGASVKLSCTASGFNIKDDYMHWVKQRPEQGLEWIGWIDPENGDTEYASKFQGKATITTDTSSNTAYLQLSSLTSEDTAVYYCLDFAYGYWGQGTTLTVSS VL: DVLMTQTPLSLPVSLGDQASISCRSSQSIVHSNGNTYLEWYLQKPGQSPKLLIYKVSNRFSGVPDRFSGSGSGTDFTLKISRVEAEDLGVYYCFQGSHVPPAFGGGTKLEIK",4.2
4,"24A11-D5 (antibody, V domains shown, hybridoma supernatant) VH: EVQLQQSGPELVKPGASVKMSCKASGYTFTDYYMKWVKQSHGKSLEWIGDLNPKNGGIIYNQKFKGQATLTVDKSSSTAYMQLNSLTSEDSAVFYCARSGGYGDSFAYWGQGTLVTVSA VL: DVLMTQTPLSLPVSLGDQASISCRSSQNIVHSNGNTYLEWYLQKPGQSPKLLIYKVSNRFSGVPDRFSGSGSGTDFTLKISRVEAEDLGIYFCFQGSHVPPTFGGGTKLEIK",2
5,"52F6-F11 (antibody, V domains shown, hybridoma supernatant) VH: QVQLQQSGTELAKPGASVKLSCKASGYTFTHYWMHWIKQRPGQGLEWIGYIYPTNDYTKYNQNFRDKATLTADESSNSAYMQLNSLTYEDSAVYYCARAGNRVFDFWGQGTTLTVSS VL: QAVVTQESALTTSPGETVTLTCRSSTGAVTTSNFANWVQEKPDHLFTGLIGGTNNRAPGVPARFSGSLIGDKAALTITGAQTEDEAIYFCALWYSNLWVFGGGTKLTVL",8.4
6,"26C1-C8 (antibody, V domains shown, hybridoma supernatant) VH: EVHLQQSGAELVRSGASVKLSCTASGFNIKDYYMYWVKQRPEQGLEWIGWIDPENGDTEYFPKFQGKATMTADTSSKTAYLQLSSLTSEDTAVYYCNAWRARATNSALDYWGQGTSVTVSS VL: not shown",4.3
7,"63H3-D8 (antibody, V domains shown, hybridoma supernatant) VH: QIQLVQSGPELKKPGETVKISCKASGYTFTSHGMSWVKQAPGKGLKWMGWINTYSGVPTYADDFKGRFAFSLETSASTAYLQINNLKNEDTATYFCARSELSWFAYWGQGTLVTVSA VL: DIVMTQSPATLSVTPGDRVSLSCRASQSISDYLHWYQQKSHESPRLLIKYASQSISGIPSRFSGSGSGSDFTLSINSVEPEDVGVYYCQNGHSFPYTFGGGTKLEIK",0.5
8,"64B9-F12 (antibody, V domains shown, hybridoma supernatant) VH: QIQLVQSGPELRKPGETVKISCKASGYTFTTYGMSWVKQAPGEGLKWMGWINTYSGMPTYADDFKGRFAFSLETSARTAYLQINNLKNEDTATYFCARSELSWFAYWGQGTLVTVSA VL: DIVMTQSPATLSVTPGDRVSLSCRASQSISDYLHWYQQKSHESPRLLIKYASQSISGIPSRFSGSGSGSDFTLSINSVEPEDVGVYYCQNGHNFPYTFGGGTKLEIK",2
9,"93A8-D2 (antibody, mouse IgG2a, V domains shown) VH: EVQLQQSGPVLVKPGASVKMSCKASGYTFTDYYVNWVKQSHGKGLEWIGLINPNNGRTSYNQNFNDKATLTVDKSSSTAFMDLNSLTSEDSAVYYCTREGGTGYWGQGTTLSVSS VL: not shown",4.3
10,"113F5-F7 (antibody, V domains shown, hybridoma supernatant) VH: EVKLEESGGGLVQPGGSMRLSCVASEFTFSNYWMNWIRQSPEKGLEWVAQIRLKSDNYATHYAESVKGRFTISRDASNFSVYLQMNNLRAEDTGIYYCTGGTSYWGQGTTLTVSS VL: DIVMTQSQKIMSTSVGDRVSITCKASQNVGTAVAWYQQRPGHSPKLLIYSASRRFSGVPDRFTGSGSGTDFTLTIINVQSEDLADYFCQQFSTYPYTFGVGTKLEIK",2.4
11,"22G7-C9 (antibody, V domains shown, hybridoma supernatant) VH: QIQLVQSGPELKKPGETVKISCKASGYTFTDCSIHWVKQAPGEGLKWMGWINTETGEPSYADDFKGRFAFSLETSASTAFLQINNLKSEDTASYFCGTAYYRYDGALDYWGQGTSVTVSS VL: DIVLTQSPASLAVSLGQRATISCRASQSVSTSSYSYMHWFQQKPGQPPKLLIKYASNLESGVPARFSGSGSGTDFTLNIHPVEEEDTATYYCQHSWELPWTFGGGTKLEIK",36

# More lines, in order of falling Kd, values ahead:
row,Kd [nM],Binder
1,1,"49G10-F4 (antibody, V domains shown, hybridoma supernatant) VH: QVQLQQPGAELVQPGASVKLSCKASGYTFTNYWMQWIKQRPGQGLEWIGEIDPSDSYTNYNQNFKDKATLTVDTSSRTAYMQLSSLTSEDSAVYYCTRRWYINSVRYFDVWGTGTTVTVSA VL: DVLMTQTPLSLSASLGDQASISCRSSQSIVHSNGNIYLEWYLQKPGQSPKLLIYKVSNRFSGVSDRFSGSGSGTDFTLKISRVEAEDLGVYYCFQGAHVPFTFGAGTKLEIK"
2,1,"307H3E8 (antibody, V domains shown) VH: EVKFEESGGGLVQPGGSMKLSCVASGFTFSNYWMNWVRQSPEKGLEWVAQIRLKSDNHATHYAESVKGRFTISRDDSKSTVYLQMNNLGAEDTGIYFCTEGGAYFDYWGQGTTLTVSS VL: DVVMTQTPLSLPVSLGDQASISCRSSQNLVHSNGNTYFHWYLQKPGQSPKLLIYKVSNRFSGVPDRFSGSGSGTDFTLKISRVEAEDLGVYVCSQSTHVPPTFGGGTKLEIK"
3,0.8,"65B1-A2 (antibody, V domains shown, hybridoma supernatant) VH: QVQLKESGPGLVAPSQSLSITCTISGFSLTTYGVHWVRQPPGKGLEWLVVIWSDGSTTYNSALKSRLSISKDNSKSQVFLKMNSLQTDDTAMYYCARQGGFITTAYYAMDYWGQGTSVTVSS VL: DIVMSQSPSSLAVSAGEKVTMSCKSSQSLLNSRTRKNYLAWYQQKPGQSPKLLIYWASTRESGVPDRFTGSGSGTDFTLTISSVQAEDLAVYYCKQSYNLYTFGGGTKLEIK"
4,0.8,"71H8-D6 (antibody, V domains shown, hybridoma supernatant) VH: EVQLQQSGAELVRSGASVKLSCTASGFNIKDYYIQWVKQRPEQGLEWIGWIDPENGDTDYAPKFQGKATMTADTSSNTAYLQFSSLTSEDTAVYYCNRGWGYWGQGTTLTVSS VL: not shown"
5,0.6,"30A1-C9 (antibody, V domains shown, hybridoma supernatant) VH: GVQLQQSGPELVKPGASVKISCKTSGYTFTEYTMHWMKQSHGKSLEWIGGIDPNTGNTNYNQKFKGKATLTVDKSSSTAYMDLRSLTSEDSAVYYFYGSGYWGQGTILTVSS VL: DVLMTQSPLSLPVSLGDQASISCRSSQSIVHSNGNTYLEWFLQKPGQSPKLLIYKVSNRFSGVPDRFSGSGSGTDFTLKISRVEAEDLGVYYCFQASHVPRTFGGGTKLEIK"
6,0.5,"7A11-C12 (antibody, V domains shown, hybridoma supernatant) VH: QIQLVQSGPDLKKPGETVKISCKASGYTFTNYGMNWVKQAPGKGLKWMGWINTNTGEPTYAEEFKGRFAFSLETSASTAYLQIDNLKNEDTATYFCARGTVSFPYWGQGTLVTVSA VL: DVVMSQTPLSLPVSLGDHASISCRSSQNLVHSDGNTYLHWYLQKPGQSPKLLIYKVSNRFSGVPDRFSGSGSGTDFTLKISRVEAEDLGVYFCSQSTHVIFTFGSGTKLEIK"
7,0.4,"83E10-D6 (antibody, V domains shown, hybridoma supernatant) VH: EVQLQQSGAELVRSGASVKLSCTASGFNIKDYYIQWVKQRPEQGLEWIGWIDPENGDTDYAPKFQGKATMTADTSSNTAYLQFSSLTSEDTAVYYCNRGWGYWGQGTTLTVSS VL: not shown"
8,0.2,"231G3F10 (antibody, V domains shown) VH: EVRLVESGGGLVQPKGSLKLSCAASGFSFNTYAMNWVRQAPGKGLEWVARIRSKRNNFATYYADSVKDRFTISRDDSKSMLYLQMNNLKTEDTAMYYCVRWGYDDPYAMDYWGQGTSVTVSS VL: NIMMTQSPSSLAVSAGEKVTMSCKSSQSVLYSSNQKNYLAWYQQKPGQSPKLLIYWASARESGVPDRFTGSGSGTDFTLTISSVQAEDLAVYYCHQYFSSFTFGSGTKLEIK"

# Molecular target: T2, recombinant human Tau monomer, 2N4R isoform (amino acids 2-441) (human, UniProt P10636-8 2-441)
# T2 construct: range 2-441; N-terminal His-tag removed with TEV protease; also called monomeric Tau
# Assay: SPR, mIgG2a captured, Tau monomer analyte, 1:1 fit
# Excerpt: Antibody heavy and light chains were constructed via gene synthesis and subcloning of the resulting DNA into murine IgG2a (heavy chain) and murine kappa (light chain) mammalian expression vectors. Antibodies were expressed in CHO or 293T cells by transient co-transfection of the heavy chain and light chain plasmids and were purified with affinity resin MabSelectSure (GE Healthcare Life Sciences). Purified recombinant antibodies were screened for binding to Tau monomer protein on a Biacore T200 surface plasmon resonance instrument using a mouse IgG capture kit and a Series S CM5 chip. Antibodies in mIgG2a format diluted in 10 mM HEPES pH7.4, 150 mM NaCl, 0.05% Tween 20 (running buffer, HBSP) were captured for 30 or 45 seconds at a concentration of 1 μg/ml (antibodies 26C1, 94B2-C1, 52F6-F11.v1, 52F6-F11.v2, 11E10-B8, 55E7-F11, 125B1-H3, 123E9-A1, 30G1-B2, 66F5-A1, 89F4-A1, 93A8-D2 and 126F11-G11) or for 70 or 150 seconds at a concentration of 0.1 μg/ml (antibodies 19H6-F7, 3A4-H4, 54C1-H11 and 37D3-H9) using a flow rate of 10 μl/min. […] Association and dissociation times were monitored for 180-480 seconds and for 300-600 seconds respectively. Antibody 37D3-H9 was selected for further analysis due to the high affinity (Table 6) and the absence of NXS/T glycosylation motifs in the CDRs.
# T2 sequence (P10636 other isoform, or with tags, fused parts or gaps limits assumed): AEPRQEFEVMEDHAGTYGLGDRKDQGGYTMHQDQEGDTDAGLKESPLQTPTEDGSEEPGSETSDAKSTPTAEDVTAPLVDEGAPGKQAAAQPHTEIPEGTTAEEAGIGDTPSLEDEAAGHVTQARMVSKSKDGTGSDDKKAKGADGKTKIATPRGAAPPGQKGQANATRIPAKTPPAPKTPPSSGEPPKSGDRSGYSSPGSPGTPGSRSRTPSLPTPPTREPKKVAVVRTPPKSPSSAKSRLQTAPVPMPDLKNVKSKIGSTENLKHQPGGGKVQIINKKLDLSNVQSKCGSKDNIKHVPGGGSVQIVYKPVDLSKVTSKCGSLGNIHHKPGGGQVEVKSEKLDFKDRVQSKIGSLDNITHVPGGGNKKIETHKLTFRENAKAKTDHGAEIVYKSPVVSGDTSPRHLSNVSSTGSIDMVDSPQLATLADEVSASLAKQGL
Kd [nM],koff [s⁻¹],kon [M⁻¹ s⁻¹],Binder
3,0.004,2e+06,"126F11-G11 (antibody, mouse IgG2a, V domains shown) VH: EVQLQQSGAELVRPGASVKLSCTASGFNIKDDYMHWVKQRPEQGLEWIGWIDPENGDTEYASKFQGKATITTDTSSNTAYLQLSSLTSEDTAVYYCLDFAYGYWGQGTTLTVSS VL: DVLMTQTPLSLPVSLGDQASISCRSSQSIVHSNGNTYLEWYLQKPGQSPKLLIYKVSNRFSGVPDRFSGSGSGTDFTLKISRVEAEDLGVYYCFQGSHVPPAFGGGTKLEIK"
6,0.002,300000,"93A8-D2 (antibody, mouse IgG2a, V domains shown) VH: EVQLQQSGPVLVKPGASVKMSCKASGYTFTDYYVNWVKQSHGKGLEWIGLINPNNGRTSYNQNFNDKATLTVDKSSSTAFMDLNSLTSEDSAVYYCTREGGTGYWGQGTTLSVSS VL: not shown"
